The values that follow come from patent publication US20220235143A1.

For orientation: EC50 (read off the curve) means the midpoint of the concentration-response curve. Lower therefore signals higher potency in that assay. One may read the Kd as a measure of binding affinity in units of concentration. A low value points to tighter binding.

The target of assay [1] is MUC16 c114 expressed on transfected SKOV3 cells (SKOV3^c114) (human). The assay is described as follows: saturation binding assay, 89Zr-labeled antibody on SKOV3^c114 cells, cell bound activity (counts); right panel.
MUC16 c114 expressed on transfected SKOV3 cells (SKOV3^c114) (human), sequence (chain, as listed by the source limits assumed): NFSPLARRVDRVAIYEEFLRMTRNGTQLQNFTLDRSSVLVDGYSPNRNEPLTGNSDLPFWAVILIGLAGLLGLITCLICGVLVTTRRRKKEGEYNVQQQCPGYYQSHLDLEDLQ
The target is the same in assay [2]. Put plainly: saturation binding of 89Zr-DFO antibody on SKOV3^c114 cells.
In assay [3] the target is MUC16 as naturally expressed on ovarian cancer cell lines (OVCAR3; also OVCA-433, CAOV3) (human). Put plainly: FACS surface staining of OVCAR3 cells, goat anti-mouse IgG2b-PE detection; same cells: secondary alone 1.95, cells only 0.34.
The target in assay [4] is MUC16 c344 expressed on transfected cells (SKOV3-phrGFP-MUC16c344, A2780-phrGFP-MUC16c344) (human). The assay is described as follows: FACS surface staining of A2780-c344 transfectant cells, goat anti-mouse IgG2b-PE detection; same cells: secondary alone 0.68, cells only 0.07; 4H11 on vector control A2780-phrGFP 0.88.
MUC16 c344 expressed on transfected cells (SKOV3-phrGFP-MUC16c344, A2780-phrGFP-MUC16c344) (human), sequence (chain, as listed by the source limits assumed): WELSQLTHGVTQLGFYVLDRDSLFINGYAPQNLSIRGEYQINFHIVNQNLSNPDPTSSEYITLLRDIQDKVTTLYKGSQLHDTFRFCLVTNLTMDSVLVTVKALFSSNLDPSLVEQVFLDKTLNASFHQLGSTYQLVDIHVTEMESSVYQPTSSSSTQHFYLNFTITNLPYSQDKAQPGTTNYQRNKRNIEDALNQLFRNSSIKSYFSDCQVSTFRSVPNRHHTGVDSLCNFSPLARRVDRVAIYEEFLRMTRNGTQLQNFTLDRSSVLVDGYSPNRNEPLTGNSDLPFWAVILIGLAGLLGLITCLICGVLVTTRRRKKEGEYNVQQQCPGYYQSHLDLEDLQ
Assay [5] has as its target MUC16 c114 expressed on transfected SKOV3 cells (SKOV3^c114) (human). The assay is described as follows: FACS surface staining of SKOV3-c114 transfectant cells, goat anti-mouse IgG2b-PE detection; same cells: secondary alone 138, cells only 36.8; 4H11 on vector control SKOV3-phrGFP 162.
Assay [6] addresses MUC16 c344 expressed on transfected cells (SKOV3-phrGFP-MUC16c344, A2780-phrGFP-MUC16c344) (human). Put plainly: FACS surface staining of SKOV3-c344 transfectant cells, goat anti-mouse IgG2b-PE detection; same cells: secondary alone 0.53, cells only 0.04; 4H11 on vector control SKOV3-phrGFP 2.80.
The target is the same in assay [7]. The assay is described as follows: FACS surface staining of A2780-c344 transfectant cells, goat anti-mouse IgG2b-PE detection; same cells: secondary alone 69.8, cells only 33.7; 4H11 on vector control A2780-phrGFP: bar at the level of secondary alone, label overlapped.
The target is the same in assay [8]. The assay is described as follows: FACS surface staining of SKOV3-c344 transfectant cells, goat anti-mouse IgG2b-PE detection; same cells: secondary alone 106, cells only 49.2; 4H11 on vector control SKOV3-phrGFP 162.
The target in assay [9] is MUC16 c114 expressed on transfected SKOV3 cells (SKOV3^c114) (human). The assay is described as follows: FACS surface staining of SKOV3-c114 transfectant cells, goat anti-mouse IgG2b-PE detection; same cells: secondary alone 6.80, cells only 0.14; 4H11 on vector control SKOV3-phrGFP 2.80.
The target is the same in assay [10]. The assay is described as follows: FACS surface staining of A2780-c114 transfectant cells, goat anti-mouse IgG2b-PE detection; same cells: secondary alone 0.10, cells only 0.01; 4H11 on vector control A2780-phrGFP 0.88.
For assay [11] the target is unchanged. Put plainly: Lindmo cell-binding assay on SKOV3^c114 cells.
The target in assay [12] is MUC16 as naturally expressed on ovarian cancer cell lines (OVCAR3; also OVCA-433, CAOV3) (human). The assay is described as follows: FACS surface staining of OVCAR3 cells, goat anti-mouse IgG2b-PE detection; same cells: secondary alone 65.8, cells only 24.6.
Assay [13] concerns the target MUC16 c114 expressed on transfected SKOV3 cells (SKOV3^c114) (human). Put plainly: FACS surface staining of A2780-c114 transfectant cells, goat anti-mouse IgG2b-PE detection; same cells: secondary alone 42.3, cells only 24.6; 4H11 on vector control A2780-phrGFP: bar at the level of secondary alone, label overlapped.
The target is the same in assay [14]. The assay is described as follows: Lindmo cell-binding assay, 89Zr-DFO antibody on SKOV3^c114 cells.

In turn, 4H11 murine monoclonal antibody came in with a concentration for a half-maximal effect (EC50 (read off the curve)) in assay [1] of 6 nM. Besides, the Kd worked out at 6.37 nM in assay [1] and 6.4 nM in assay [2]. For the same substance, the % PE Positive was found to be 98.5% in assay [3]; 93.8% in [4]; 41.2% in assay [6]; 95.9% in [9]; 71.3% in assay [10]. The Geometric Mean PE Fluorescence (Relative Number) in [5] turned out to be 2080; in assay [7] it was 777; in assay [8] it was 1580; in [12], 3050; in [13] it was 544. For the same substance, the immunoreactive fraction in assay [11] was over 80%. The same substance displayed an Immunoreactive Fraction (%) in [14] of 88.3%.
